Experimental findings from publication PMC5834530 are described below.

Assay [1] has as its target MGG_01005 (Magnaporthe oryzae dynein light chain Tctex-type 1, dynlt1/3), wild type, recombinant (Magnaporthe oryzae) (UniProt G4NCW2). In words: SEC; gel filtration chromatography of MGG_01005 (Supplementary Figure S3).
Assay [2] shares this target. Kind of assay: AUC.
The target is the same in assay [3]. Kind of assay: ITC. In general terms: ITC needs no label: the signal is the heat of the interaction.
The target is the same in assay [4]. In words: ITC. This is another data set of the same source.

Regarding “MGG_01005 (Magnaporthe oryzae dynein light chain Tctex-type 1, dynlt1/3), wild type, recombinant (from UniProt G4NCW2 1-153) (natural protein)”, the stoichiometry N in assay [1] and in assay [2] was 2 throughout.

In the case of MoDyn1I2^117–150 peptide, in assay [3], the dissociation constant Kd (in general, the free concentration of one partner at which half of the binding sites on the other are occupied at equilibrium, for simple one-to-one binding) worked out at 5.39 µM and the stoichiometry N – broadly, a count of units in the complex or per binding partner – turned out to be 0.55. Moreover, the stoichiometry N in assay [4] lay within 0.4 to 0.7.

As for MoDyn1I2^122–141 peptide, in assay [3], the Kd was determined as 15.2 µM, the dH was -3.28 kcal/mol and the stoichiometry N amounted to 1.13.
